B1: Refmab #5 (antibody, V domains shown)
VH: QVQLVQSGAEVKKPGASVKVSCKASGYTFTNYDINWVRQAPGQGLEWIGWIYPGDGSTKYNEKFKAKATLTADTSTSTAYMELRSLRSDDTAVYYCASGYEDAMDYWGQGTTVTVSS
VL: DIQMTQSPSSLSASVGDRVTINCKASQDINSYLSWFQQKPGKAPKTLIYRANRLVDGVPSRFSGSGSGQDYTLTISSLQPEDFATYYCLQYDEFPLTFGGGTKVEIK
notes: The alanine scan used IgG or Fab
B2: Refmab #6 (antibody, V domains shown)
VH: QVQLQQPGAEVVKPGASVKMSCKASGYTFTSYYIHWIKQTPGQGLEWVGVIYPGNDDISYNQKFQGKATLTADKSSTTAYMQLSSLTSEDSAVYYCAREVRLRYFDVWGQGTTVTVSS
VL: EIVLTQSPGSLAVSPGERVTMSCKSSQSVFFSSSQKNYLAWYQQIPGQSPRLLIYWASTRESGVPDRFTGSGSGTDFTLTISSVQPEDLAIYYCHQYLSSRTFGQGTKLEIK
notes: as for B1

Assays:
Experiment in all cases: flow cytometry, HEK293-T, alanine scan;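 note: transiently transfected HEK293-T cells expressing single alanine mutants of human CD33 (alanine residues changed to serine), antibody binding fluorescence minus background, relative to wild type CD33, mean of duplicates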
human CD33 V282A = human CD33 V282A (human, UniProt P20138 18-364)
Sequence of human CD33 V282A (P20138 18-364 V282A limits assumed): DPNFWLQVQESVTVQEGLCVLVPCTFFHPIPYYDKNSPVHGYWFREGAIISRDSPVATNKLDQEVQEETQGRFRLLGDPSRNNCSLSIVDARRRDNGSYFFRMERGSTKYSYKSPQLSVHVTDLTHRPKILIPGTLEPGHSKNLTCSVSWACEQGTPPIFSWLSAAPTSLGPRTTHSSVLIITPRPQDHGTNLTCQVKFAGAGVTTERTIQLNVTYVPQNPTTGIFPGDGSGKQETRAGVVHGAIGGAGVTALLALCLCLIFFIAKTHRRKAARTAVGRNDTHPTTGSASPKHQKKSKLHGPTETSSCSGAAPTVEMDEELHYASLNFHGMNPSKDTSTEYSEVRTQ
Method: (§1) An alanine scan on human CD33 was performed to the determine the residues on CD33 that are involved in binding to the antibodies investigated. […] Briefly, a mutation library of CD33 was created by high-throughput, site-directed mutagenesis. Each residue was individually mutated to alanine, with alanine codons mutated to serine. The mutant library was arrayed in 384-well microplates and transiently transfected into HEK293-T. Following transfection, cells were incubated with the indicated antibodies (IgG or Fab) at concentrations pre-determined using an independent immunofluorescence titration curve on wild type CD33. […] Binding of each antibody to each mutant clone was determined in duplicates. For each point, background fluorescence was subtracted from the raw data, which were then normalized to antibody reactivity with wild type CD33.
(§2) Critical residues for antibody binding (outlined in dark grey) were residues whose mutations led to a binding of the test Abs of less than 20%. Additional secondary residues (outlined in light grey) were identified that led to a binding of the test Abs of between 20 and 40% as compared to the wild type CD33.

human CD33 T299A = human CD33 T299A (human, UniProt P20138 18-364)
Method: as §1, §2

human CD33 T302A = human CD33 T302A (human, UniProt P20138 18-364)
Method: as §1, §2

human CD33 S307A = human CD33 S307A (human, UniProt P20138 18-364)
Method: as §1, §2

human CD33 N344A = human CD33 N344A (human, UniProt P20138 18-364)
Sequence of human CD33 N344A (P20138 18-364 N344A limits assumed): as the sequence (P20138 18-364 V282A limits assumed) above, with A265V, N327A counted along it
Method: as §1, §2

human CD33 A272S = human CD33 A272S (human, UniProt P20138 18-364)
Sequence of human CD33 A272S (P20138 18-364 A272S limits assumed): as the sequence (P20138 18-364 V282A limits assumed) above, with A255S, A265V counted along it
Method: as §1, §2

human CD33 S324A = human CD33 S324A (human, UniProt P20138 18-364)
Sequence of human CD33 S324A (P20138 18-364 S324A limits assumed): as the sequence (P20138 18-364 V282A limits assumed) above, with A265V, S307A counted along it
Method: as §1, §2

human CD33 G327A = human CD33 G327A (human, UniProt P20138 18-364)
Sequence of human CD33 G327A (P20138 18-364 G327A limits assumed): as the sequence (P20138 18-364 V282A limits assumed) above, with A265V, G310A counted along it
Method: as §1, §2

human CD33 G304A = human CD33 G304A (human, UniProt P20138 18-364)
Method: as §1, §2

human CD33 F345A = human CD33 F345A (human, UniProt P20138 18-364)
Method: as §1, §2

human CD33 T292A = human CD33 T292A (human, UniProt P20138 18-364)
Method: as §1, §2

human CD33 A289S = human CD33 A289S (human, UniProt P20138 18-364)
Sequence of human CD33 A289S (P20138 18-364 A289S limits assumed): as the sequence (P20138 18-364 V282A limits assumed) above, with A265V, A272S counted along it
Method: as §1, §2

human CD33 S342A = human CD33 S342A (human, UniProt P20138 18-364)
Method: as §1, §2

human CD33 P319A = human CD33 P319A (human, UniProt P20138 18-364)
Sequence of human CD33 P319A (P20138 18-364 P319A limits assumed): as the sequence (P20138 18-364 V282A limits assumed) above, with A265V, P302A counted along it
Method: as §1, §2

human CD33 M334A = human CD33 M334A (human, UniProt P20138 18-364)
Method: as §1, §2

human CD33 F280A = human CD33 F280A (human, UniProt P20138 18-364)
Method: as §1, §2

human CD33 V332A = human CD33 V332A (human, UniProt P20138 18-364)
Sequence of human CD33 V332A (P20138 18-364 V332A limits assumed): as the sequence (P20138 18-364 V282A limits assumed) above, with A265V, V315A counted along it
Method: as §1, §2

human CD33 N297A = human CD33 N297A (human, UniProt P20138 18-364)
Method: as §1, §2

human CD33 K288A = human CD33 K288A (human, UniProt P20138 18-364)
Method: as §1, §2

human CD33 R287A = human CD33 R287A (human, UniProt P20138 18-364)
Method: as §1, §2

human CD33 T322A = human CD33 T322A (human, UniProt P20138 18-364)
Sequence of human CD33 T322A (P20138 18-364 T322A limits assumed): as the sequence (P20138 18-364 V282A limits assumed) above, with A265V, T305A counted along it
Method: as §1, §2

human CD33 S326A = human CD33 S326A (human, UniProt P20138 18-364)
Method: as §1, §2

human CD33 A328S = human CD33 A328S (human, UniProt P20138 18-364)
Sequence of human CD33 A328S (P20138 18-364 A328S limits assumed): as the sequence (P20138 18-364 V282A limits assumed) above, with A265V, A311S counted along it
Method: as §1, §2

human CD33 K315A = human CD33 K315A (human, UniProt P20138 18-364)
Sequence of human CD33 K315A (P20138 18-364 K315A limits assumed): as the sequence (P20138 18-364 V282A limits assumed) above, with A265V, K298A counted along it
Method: as §1, §2

human CD33 S314A = human CD33 S314A (human, UniProt P20138 18-364)
Method: as §1, §2

human CD33 C274A = human CD33 C274A (human, UniProt P20138 18-364)
Method: as §1, §2

human CD33 E336A = human CD33 E336A (human, UniProt P20138 18-364)
Method: as §1, §2

human CD33 P301A = human CD33 P301A (human, UniProt P20138 18-364)
Method: as §1, §2

human CD33 R296A = human CD33 R296A (human, UniProt P20138 18-364)
Method: as §1, §2

human CD33 D335A = human CD33 D335A (human, UniProt P20138 18-364)
Method: as §1, §2

human CD33 K312A = human CD33 K312A (human, UniProt P20138 18-364)
Sequence of human CD33 K312A (P20138 18-364 K312A limits assumed): as the sequence (P20138 18-364 V282A limits assumed) above, with A265V, K295A counted along it
Method: as §1, §2

human CD33 S305A = human CD33 S305A (human, UniProt P20138 18-364)
Method: as §1, §2

human CD33 E321A = human CD33 E321A (human, UniProt P20138 18-364)
Sequence of human CD33 E321A (P20138 18-364 E321A limits assumed): as the sequence (P20138 18-364 V282A limits assumed) above, with A265V, E304A counted along it
Method: as §1, §2

human CD33 Q311A = human CD33 Q311A (human, UniProt P20138 18-364)
Method: as §1, §2

human CD33 R286A = human CD33 R286A (human, UniProt P20138 18-364)
Method: as §1, §2

human CD33 E333A = human CD33 E333A (human, UniProt P20138 18-364)
Sequence of human CD33 E333A (P20138 18-364 E333A limits assumed): as the sequence (P20138 18-364 V282A limits assumed) above, with A265V, E316A counted along it
Method: as §1, §2

Binder | Mean % WT Binding (human CD33 V282A) | Mean % WT Binding (human CD33 T299A) | Mean % WT Binding (human CD33 T302A) | Mean % WT Binding (human CD33 S307A) | Mean % WT Binding (human CD33 N344A) | Mean % WT Binding (human CD33 A272S) | Mean % WT Binding (human CD33 S324A) | Mean % WT Binding (human CD33 G327A) | Mean % WT Binding (human CD33 G304A) | Mean % WT Binding (human CD33 F345A) | Mean % WT Binding (human CD33 T292A) | Mean % WT Binding (human CD33 A289S) | Mean % WT Binding (human CD33 S342A) | Mean % WT Binding (human CD33 P319A) | Mean % WT Binding (human CD33 M334A) | Mean % WT Binding (human CD33 F280A) | Mean % WT Binding (human CD33 V332A) | Mean % WT Binding (human CD33 N297A) | Mean % WT Binding (human CD33 K288A) | Mean % WT Binding (human CD33 R287A) | also measured
B1 | 112 % WT binding | 91.1 % WT binding | 77 % WT binding | 83 % WT binding | 87.9 % WT binding | 110 % WT binding | 96.6 % WT binding | 98.7 % WT binding | 79.1 % WT binding | 86.4 % WT binding | 85.1 % WT binding | 91.8 % WT binding | 101 % WT binding | 70 % WT binding | 99.4 % WT binding | 124 % WT binding | 71.6 % WT binding | 83.7 % WT binding | 97.9 % WT binding | 97.1 % WT binding | Mean % WT Binding (human CD33 T322A): 100 % WT binding; Mean % WT Binding (human CD33 S326A): 107 % WT binding; Mean % WT Binding (human CD33 A328S): 105 % WT binding; Mean % WT Binding (human CD33 K315A): 112 % WT binding; Mean % WT Binding (human CD33 S314A): 112 % WT binding; Mean % WT Binding (human CD33 C274A): 87.4 % WT binding; Mean % WT Binding (human CD33 E336A): 90.5 % WT binding; Mean % WT Binding (human CD33 P301A): 90.1 % WT binding; Mean % WT Binding (human CD33 R296A): 99.5 % WT binding; Mean % WT Binding (human CD33 D335A): 86.2 % WT binding; Mean % WT Binding (human CD33 K312A): 94.7 % WT binding; Mean % WT Binding (human CD33 S305A): 103 % WT binding; Mean % WT Binding (human CD33 E321A): 96.2 % WT binding; Mean % WT Binding (human CD33 Q311A): 126 % WT binding; Mean % WT Binding (human CD33 R286A): 97.5 % WT binding; Mean % WT Binding (human CD33 E333A): 121 % WT binding
B2 | 108 % WT binding | 104 % WT binding | 101 % WT binding | 116 % WT binding | 67.7 % WT binding | 90.9 % WT binding | 97.1 % WT binding | 92.1 % WT binding | 100 % WT binding | 98.4 % WT binding | 113 % WT binding | 96 % WT binding | 102 % WT binding | 85.2 % WT binding | 107 % WT binding | 106 % WT binding | 100 % WT binding | 95.6 % WT binding | 100 % WT binding | 71.5 % WT binding | Mean % WT Binding (human CD33 T322A): 110 % WT binding; Mean % WT Binding (human CD33 S326A): 88.8 % WT binding; Mean % WT Binding (human CD33 A328S): 94 % WT binding; Mean % WT Binding (human CD33 K315A): 99.2 % WT binding; Mean % WT Binding (human CD33 S314A): 96.3 % WT binding; Mean % WT Binding (human CD33 C274A): 92.3 % WT binding; Mean % WT Binding (human CD33 E336A): 102 % WT binding; Mean % WT Binding (human CD33 P301A): 105 % WT binding; Mean % WT Binding (human CD33 R296A): 102 % WT binding; Mean % WT Binding (human CD33 D335A): 98.2 % WT binding; Mean % WT Binding (human CD33 K312A): 94.5 % WT binding; Mean % WT Binding (human CD33 S305A): 86.8 % WT binding; Mean % WT Binding (human CD33 E321A): 111 % WT binding; Mean % WT Binding (human CD33 Q311A): 88.7 % WT binding; Mean % WT Binding (human CD33 R286A): 95.6 % WT binding; Mean % WT Binding (human CD33 E333A): 98.7 % WT binding

— patent US20260242735A1 (UNIVERSIT T BASEL, published 2026)
